Source: paper doi:10.1101/2022.01.09.475535

Target: SF3B1 N-terminal region, residues 147-462 (SFB1^147-462) (human) (UniProt O75533)
Test: ITC

SF3B1 N-terminal region, residues 147-462 (SFB1^147-462) (human), sequence (O75533 147-462): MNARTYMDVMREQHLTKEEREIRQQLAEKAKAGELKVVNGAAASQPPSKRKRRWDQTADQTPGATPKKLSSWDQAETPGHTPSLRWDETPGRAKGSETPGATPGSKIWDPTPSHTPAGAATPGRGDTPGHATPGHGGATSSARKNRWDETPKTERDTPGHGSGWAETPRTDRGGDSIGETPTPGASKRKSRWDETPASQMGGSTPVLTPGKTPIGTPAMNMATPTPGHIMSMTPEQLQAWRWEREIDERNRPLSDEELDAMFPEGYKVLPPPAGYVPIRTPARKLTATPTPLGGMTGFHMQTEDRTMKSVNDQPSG

- stoichiometry N (U2AF2^12UL per SF3B1 ULM region): 2
Substance: U2AF2^12UL (nearly full-length U2AF2, residues 141-471) (domain or fragment)
